Measured values reported in PMC12000455.

Molecular target: Slik coiled-coil C-terminal domain (Slik^CCD) (Drosophila)
Assay: SEC; purified Slik^CCD on a Superdex 75 10/300 column in 20 mM Tris-HCl pH 7.5, 150 mM NaCl, 2 mM DTT; elution peak at 95.45 kDa

- stoichiometry N: 2
Substance: Slik coiled-coil C-terminal domain (Slik^CCD) (domain or fragment)
